The source of these data is paper PMC9018835, “Regulated interaction of ID2 with the anaphase-promoting complex links progression through mitosis with reactivation of cell-type-specific transcription” (Nature Communications, 2022).

Positions count from the first letter of the chain named. Names may count otherwise.

The target of assay [1] is core APC (endogenous, HeLa) (human (endogenous in HeLa)). The experiment in a line: cell-based or functional assay.
Assay [2] concerns the target T1, HA-CDH1, in vitro translated (UniProt Q9UM11 1-496).
T1 construct: CDH1/FZR1, generated by PCR and cloned into pcDNA3; also called in vitro translated CDH1; source: in vitro translated
The experiment in a line: pull-down; GST-ID2, with or without prior in vitro phosphorylation by CDK1-Cyclin B, incubated with APC immunopurified through FLAG-APC3 from HeLa cells and activated by in vitro translated HA-CDC20 or CDH1; western blot (Fig. 3h). As to conditions: both partners purified. (In western blotting, separated proteins are transferred to a membrane and probed.)

T1 sequence (Q9UM11 whole entry): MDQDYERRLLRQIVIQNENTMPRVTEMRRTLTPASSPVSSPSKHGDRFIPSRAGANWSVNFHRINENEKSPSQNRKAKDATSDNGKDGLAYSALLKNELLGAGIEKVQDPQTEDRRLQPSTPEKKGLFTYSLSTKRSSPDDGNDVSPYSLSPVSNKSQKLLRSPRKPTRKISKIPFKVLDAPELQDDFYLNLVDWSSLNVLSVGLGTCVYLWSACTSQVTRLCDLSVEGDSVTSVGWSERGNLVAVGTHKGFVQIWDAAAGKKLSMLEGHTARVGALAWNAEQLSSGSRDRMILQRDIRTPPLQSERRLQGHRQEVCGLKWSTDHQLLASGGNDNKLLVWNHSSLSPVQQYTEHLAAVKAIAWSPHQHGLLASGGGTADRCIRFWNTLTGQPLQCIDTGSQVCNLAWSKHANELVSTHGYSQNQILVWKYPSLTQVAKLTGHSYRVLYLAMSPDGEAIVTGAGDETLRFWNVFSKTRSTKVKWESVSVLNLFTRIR

B1: FLAG-ID2-S5D (natural protein, UniProt Q02363 1-134, looked up)
chain: MKAFDPVRSVRKNSLSDHSLGISRSKTPVDDPMSLLYNMNDCYSKLKELVPSIPQNKKVSKMEILQHVIDYILDLQIALDSHPTIVSLHHQRPGQNQASRTPLTTLNTDISILSLQASEFPSELMSNDSKALCG
In the case of B1, in assay [1], the “half-life of ID2-S5D in transiently transfected HeLa cells treated with cycloheximide, against ID2 wild type” value is about 5 fold.

B2: phospho-S5-GST-ID2 (natural protein, UniProt Q02363 1-134, looked up)
chain: B1 chain with D5S
modifications: phosphoserine at 5 (in vitro phosphorylation by Cyclin B-CDK1)
notes: also called CDK1 phosphorylated GST-ID2; source: E. coli BL21(DE3), GST fusion; phosphorylated in vitro by CDK1-Cyclin B
For B2, the binding result in assay [2] is listed as “binds”.

B3: GST-ID2 wild type (natural protein, UniProt Q02363 1-134, looked up)
chain: B1 chain with D5S
notes: also called GST-ID2 WT; recombinant GST-ID2; source: E. coli BL21(DE3), purified GST fusion, immobilised on glutathione sepharose 4B
B3: in assay [2], the binding result is on record as “binds”.
